Measured values: patent US20240343803A1 (SHANDONG SIMCERE BIOPHARMACEUTICAL, published 2024)
Values joined by “and” are separate entries in the source; they are usually repeats but may differ in a detail not shown here. Equal values may be shown once. Read-outs that look alike come from different tables or passages of the source.

T1: human PVRIG-mFc protein (Acro, PVG-H5253) (human, UniProt Q6DKI7 41-171, limits assumed)
T1 construct: bought reagent; also called PVRIG-ECD-mFc
T1 sequence (looked up): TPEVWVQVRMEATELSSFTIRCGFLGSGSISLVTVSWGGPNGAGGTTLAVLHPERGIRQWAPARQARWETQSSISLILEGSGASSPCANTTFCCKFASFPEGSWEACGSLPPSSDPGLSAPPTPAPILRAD

T2: human PVRIG-his (AcroBiosystems, Cat NO. PVG-H52H4) (human, UniProt Q6DKI7 41-171, limits assumed)
T2 construct: treated as the same protein; also called human PVRIG-His protein; Human PVRIG-His, Acro C227P1-9ARF1-T4
T2 sequence (looked up): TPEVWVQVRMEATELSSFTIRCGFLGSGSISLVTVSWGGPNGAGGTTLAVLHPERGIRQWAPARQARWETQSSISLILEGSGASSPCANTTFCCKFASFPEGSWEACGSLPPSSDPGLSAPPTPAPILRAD

T3: human PVRIG on FlpinCHO-PVRIG cells (human, UniProt Q6DKI7 41-326)
T3 construct: whole, on cells; also called FlpinCHO-hPVRIG; FlpinCHO-human PVRIG
T3 sequence (looked up): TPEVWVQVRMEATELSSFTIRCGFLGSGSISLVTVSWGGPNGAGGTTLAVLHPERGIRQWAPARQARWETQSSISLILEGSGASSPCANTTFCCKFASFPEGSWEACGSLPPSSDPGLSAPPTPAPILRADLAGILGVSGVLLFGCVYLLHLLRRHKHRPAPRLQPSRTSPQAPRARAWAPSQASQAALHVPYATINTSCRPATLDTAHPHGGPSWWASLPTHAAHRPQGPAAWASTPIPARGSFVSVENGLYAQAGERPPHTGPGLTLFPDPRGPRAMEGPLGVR

T4: cynomolgus monkey PVRIG (Novoprotein, Cat NO. C09B) (cynomolgus monkey, UniProt A0A2K5WVV8 41-171)
T4 construct: bought reagent; also called cynomolgus monkey PVRIG recombinant protein
T4 sequence: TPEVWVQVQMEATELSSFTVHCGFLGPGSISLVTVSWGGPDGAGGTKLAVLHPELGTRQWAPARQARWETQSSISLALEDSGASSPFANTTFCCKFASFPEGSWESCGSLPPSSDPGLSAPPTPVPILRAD


How the values were obtained:
[1] = target: T1, human PVRIG-mFc protein (Acro, …); experiment: competition FACS; blocked: human PVRIG-mFc binding to CHO-K1-CD112 cells
Method: (§1) After incubation, the cells were added with staining buffer (2% FBS+PBS) to stop staining, centrifuged at 350×g to remove the supernatant, washed twice and resuspended with staining buffer to a density of 1×10⁶ cells/mL. The cells were plated into a 96-well plate (50 μL of cell suspension per well) for further use. A working solution of human PVRIG-mFc protein (Acro, PVG-H5253) prepared with staining buffer, 1 μg/mL (four-fold concentration), was added into a 96-well plate (50 μL PVRIG-mFc working solution per well). […] The diluted antibodies were added to the well containing 50 μL of PVRIG-mFc. The plate was placed on a microplate shaker at 400 rpm for 1 minute to fully mix the antibodies and PVRIG-mFc proteins, and then incubated at 4° C. for 30 minutes. After the incubation, the cell suspension prepared above (100 μL) was added into the wells, gently mixed with the pipette tip and incubated at 4° C. for 30 minutes. After the incubation, the cells were washed twice with staining buffer (200 μL per well) and centrifuged at 350×g for 5 minutes to discard the supernatant. The PE goat anti-mouse IgG Fc antibody (Biolegend, 405337) was diluted 250 times with staining buffer, added into the washed wells (100 μL per well), mixed well, and stained at 4° C. for 30 minutes. After staining, the cells were washed twice with staining buffer, finally resuspended with 200 μL staining buffer and analyzed by flow cytometry (BD, Canto II). The weaker the fluorescence signal, the stronger the ability of the antibodies blocks the binding of CHO-K1 human CD112 cells to the PVRIG-mFc protein. An antibody binding curve was drawn with concentration of antibodies as the abscissa and the corresponding Mean Fluorescence Intensity (MFI) as the ordinate. The IC50 value of the antibodies and the AUC value of the binding curve were calculated by using a Four Parameter Logistic Fit (GraphPadPrism9). The smaller the IC50 value and AUC value, the stronger the ability of the antibodies competes with CHO-K1-CD112 cells to bind to human PVRIG-mFc protein.

[2] = target: T2, human PVRIG-his (AcroBiosystems, Cat …); experiment: competition ELISA on coated human PVRIG-his; blocked ligand human PVRL2-mFc
Method: (§2) The ELISA plate was pre-coated with 100 μL/well of 0.5 μg/mL human PVRIG-his protein (AcroBiosystems, Cat NO. PVG-H52H4). The tested anti-PVRIG antibodies were diluted from the highest concentration of 16 nM (two-fold concentration). The diluted antibodies were mixed with 18 ng/ml human PVRL2-mFc (AcroBiosystems, Cat NO. CD2-H5257) in equal volume, added into the plate (100 μL/well), and incubated with shaking at room temperature for 2.0 hours. […] A HRP substrate, TMB (Thermo, Cat NO. 34029) was added into wells after washing the plate again for color development. After adding a termination solution to terminate the reaction, the absorbance value was read by a microplate reader (MD i3×). An inhibiting curve was drawn with concentration of antibodies as the abscissa and the corresponding OD value as the ordinate. The IC50 value was calculated by using a Four Parameter Logistic Fit (GraphPadPrism9). The smaller the IC50 value, the stronger the ability of the antibodies inhibits the binding between PVRIG and PVRL2. The positive and negative controls are the same as in Example 8.

[3] = target: T2, human PVRIG-his (AcroBiosystems, Cat …); experiment: as above; remark: listed apart in the source
Method: as §2
The methods refer to Example 11. The inhibiting activity of the humanized antibodies was normalized to the corresponding parental antibodies. If the percentage value is higher than 100%, the inhibiting effect of humanized antibodies is better than that of parental antibodies.

[4] = target: T3, human PVRIG on FlpinCHO-PVRIG cells; experiment: FACS, FlpinCHO-PVRIG cells
Method: After discarding the cell culture medium, the cells were rinsed with PBS and digested for 8-10 minutes by adding 1 mL Versene (Gibico, 15040-066). The Ham's F12 (Gibico, 21127-022) complete medium containing 10% FBS was then added to terminate the digestion and acquire cell suspension. After counting with a cell counter (Beckman Coulter, Vi-CELL), an appropriate amount of cell suspension was centrifuged at 350×g to remove the supernatant, washed twice with PBS, stained with Zombie violet (Biolegend, 423114) and incubated at room temperature for 20 minutes. After incubation, the cells were added with staining buffer (2% FBS+PBS) to stop staining, centrifuged at 350×g to remove the supernatant, washed twice and resuspended with staining buffer to a density of 2×10⁶ cells/mL. The cells were plated into a 96-well plate (50 μL of cell suspension per well) for further use. The antibodies were diluted from the highest concentration of 46 nM (two-fold concentration) with staining buffer by 3.3-fold serial dilution. The diluted antibodies were added to the well containing 50 μL of cell suspension. The plate was placed on a microplate shaker at 400 rpm for 1 minute to fully mix the antibodies and cells, and then incubated at 4° C. for 30 minutes. After the incubation, the cells were washed twice with staining buffer (200 μL per well) and centrifuged at 350×g for 5 minutes to discard the supernatant. The PE goat anti-human IgG Fc antibody (ebioscience, 12-4998-82) was diluted 250 times with staining buffer, added into the washed wells (100 μL per well), mixed well, and stained at 4° C. for 30 minutes. After staining, the cells were washed twice with staining buffer, finally resuspended with 200 μL staining buffer and analyzed by flow cytometry (BD, Canto II). The stronger the signal, the stronger the ability of the antibodies binds to PVRIG. An antibody binding curve was drawn with concentration of antibodies as the abscissa and the corresponding Mean Fluorescence Intensity (MFI) as the ordinate. The AUC value of the curve was calculated by using a Four Parameter Logistic Fit (GraphPadPrism9).

[5] = target: T1, human PVRIG-mFc protein (Acro, …); experiment: competition FACS; blocked: PVRIG-mFc binding to CHO-K1 CD112 cells
Method: as §1, with “The Ham's F12 (Gibico, 21127-022) complete medium containing 10% FBS was then added to stop the digestion and acquire cell suspension. After counting with a cell counter (Beckman Coulter, Vi-CELL), an appropriate amount of cell suspension was centrifuged at 350×g to remove the supernatant, washed twice with PBS, stained with Zombie violet (Biolegend, 423114) and incubated at room temperature for 20 minutes. After incubation,” for “After incubation,”, “density of 2×10⁶ cells/mL. The” for “density of 1×10⁶ cells/mL. The”, “PVRIG-mFc protein.” for “PVRIG-mFc protein. An antibody binding curve was drawn with concentration of antibodies as the abscissa and the corresponding Mean Fluorescence Intensity (MFI) as the ordinate. The IC50 value of the antibodies and the AUC value of the binding curve were calculated by using a Four Parameter Logistic Fit (GraphPadPrism9). The smaller the IC50 value and AUC value, the stronger the ability of the antibodies competes with CHO-K1-CD112 cells to bind to human PVRIG-mFc protein.”

[6] = target: T4, cynomolgus monkey PVRIG (Novoprotein, …); experiment: ELISA, coated cynomolgus monkey PVRIG
Method: (§3) The ELISA plate was pre-coated with 100 μL/well of 0.5 μg/mL human PVRIG-his (AcroBiosystems, Cat NO. PVG-H52H4) or cynomolgus monkey PVRIG (Novoprotein, Cat NO. C09B). […] A HRP substrate, TMB (Thermo, Cat NO. 34029) was added into wells after washing the plate again for color development. After adding a termination solution to terminate the reaction, the absorbance value was read by a microplate reader (MD i3×). An antibody binding curve was drawn with concentration of antibodies as the abscissa and the corresponding OD value as the ordinate. The EC50 value was calculated by using a Four Parameter Logistic Fit (GraphPadPrism9). The smaller the EC50 value, the stronger the ability of the antibodies binds to human or cynomolgus monkey PVRIG. The positive control antibodies are COM701-hIgG1 (Patent No.:US20180244774A1), COM701-hIgG4 (patent No.: US20180244774A1) and SRF813-hIgG1 (Patent No.:US20200040081A1); and the negative control antibodies are anti-HA HcAb-hIgG1 (Chengdu NB Biolab, Cat NO. NBR022), anti-CD38 HcAb-hIgG1 (in-house) and anti-Fluorescein-hIgG1 (in house).

[7] = target: T2, human PVRIG-his (AcroBiosystems, Cat …); experiment: ELISA, coated human PVRIG-his
Method: as §3

[8] = target: T1, human PVRIG-mFc protein (Acro, …); experiment: competition FACS; blocked: human PVRIG-mFc binding to CHO-K1-CD112 cells; remark: listed apart in the source
How it was run: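 In this competition flow cytometry assay, the IC50 was taken from the curve of mean fluorescence intensity against antibody dilution. Antibodies and human PVRIG-mFc were premixed at 4° C for 30 min, then incubated with Zombie violet-stained CHO-K1-CD112 cells for 30 min at 4° C. PE goat anti-mouse IgG Fc (1:250) detected bound PVRIG-mFc on a BD Canto II.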

Row | Binder | IC50 (read off the curve) [1] [nM] | IC50 (read off the curve) [2] [nM] | IC50 (read off the curve) [3] | EC50 (read off the curve) [4] [nM] | IC50 (read off the curve) [5] [nM] | EC50 (read off the curve) [6] [nM] | EC50 (read off the curve) [7] [nM] | IC50 (read off the curve) [8] [nM]
1 | PVRIG-A50 (VHH, tested as VHH-hinge-CH2-CH3 (human IgG1-Fc); not shown: human IgG1 hinge-CH2-CH3) VHH: EVQLVESGGGLVQPGGSLRLSCAASGFTFSYYDMSWVRQAPGKGLEWVSTINSNGGRTSYVDSVKGRFTISRDNTKNTLYLQMNSLKPEDTAVYYCVEGDPHNFGLENLSLRDFGSWGQGTQVTVSS | ~0.7 | ~2 | ~0.8 nM and ~1 nM | ~0.7 |  |  |  | 
2 | COM701-hIgG4 (antibody, V domains shown, anti-PVRIG positive control) VH: QVQLVQSGAEVKKPGASVKVSCKASGYTFTDYNINWVRQAPGQGLEWMGYIYPYIGGSGYAQKFQGRVTMTRDTSTSTVYMELSSLRSEDTAVYYCAREDKTARNAMDYWGQGTLVTVSS VL: DIQMTQSPSSLSASVGDRVTITCRVSENIYSNLAWYQQKPGKAPKLLIYEATNLAEGVPSRFSGSGSGTDFTLTISSLQPEDFATYYCQHFWGTPYTFGQGTKLEIK | ~0.8 | ~0.8 |  |  | ~0.7 | ~0.1 | ~0.3 | ~0.9

Further lines, results first:

Row | IC50 (read off the curve) [1] [nM] | IC50 (read off the curve) [2] [nM] | IC50 (read off the curve) [3] | EC50 (read off the curve) [4] [nM] | IC50 (read off the curve) [5] [nM] | EC50 (read off the curve) [6] [nM] | EC50 (read off the curve) [7] [nM] | IC50 (read off the curve) [8] [nM] | Binder
3 |  |  |  |  | ~1 |  |  |  | PVRIG-A50-H1b (VHH, humanized VHH; also called A50.VH1b) VHH: EVQLVESGGGLVQPGGSLRLSCAASGFTFSYYDMSWVRQAPGKGLEWVSTINSDGGRTSYVDSVKGRFTISRDNSKNTLYLQMNSLRAEDTAVYYCVEGDPHNFGLESLSLRDFGSWGQGTMVTVSS
4 | ~1 | ~0.6 | ~0.6 nM | ~0.2 |  |  |  |  | PVRIG-A118 (VHH, tested as VHH-hinge-CH2-CH3 (human IgG1-Fc); not shown: human IgG1 hinge-CH2-CH3) VHH: QVQLVESGGGLVQAGGSLRLSCAASETYFDLYVMGWYRQAPGKDRELVATITYTGSIKIVDSVKDRFTISRGDAKNTVSLQMSSLKPEDTAVYFCNADPSGLGRKVYWGQGTQVTVSS
